Target: T1, Rev1 C-terminal domain (876–985) of the Rad5–Rev1 fusion protein (S. cerevisiae, UniProt P12689 876-985)
T1 sequence (looked up): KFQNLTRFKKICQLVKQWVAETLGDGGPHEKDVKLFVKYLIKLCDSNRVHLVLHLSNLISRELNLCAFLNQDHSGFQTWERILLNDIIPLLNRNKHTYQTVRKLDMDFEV
Assay: crystal structure

binding result: binds
Binder: EQEERKRFFNDDLDTS (peptide, UniProt P32849 5-20, looked up) [Rad5 peptide (5–20) of the Rad5–Rev1 fusion protein]

From paper PMC4914093 (Nucleic Acids Research, 2016)
